Blank lines part the entries; values can stand above or below the binder they belong to. Square brackets hold non-standard residues; d marks the D form. Ends that are not written are not given here. Nle = CCCC[C@H](N)C(=O)O
Experiments:
[1] = target: melanocortin-1 receptor (MC1-R) of B-16 mouse melanoma cells (mouse) (UniProt Q01727); experiment: 125I-NDP-α-MSH competition, B-16 membranes
[2] = target: human melanocortin-4 receptor (hMC4-R) (human) (UniProt P32245); experiment: 125I-NDP-α-MSH competition, hMC4-R membranes
[3] = target: human melanocortin-3 receptor (hMC3-R) (human) (UniProt P41968); experiment: 125I-NDP-α-MSH competition, hMC3-R membranes
[4] = target: human melanocortin-5 receptor (hMC5-R) (human) (UniProt P33032); experiment: 125I-NDP-α-MSH competition, hMC5-R membranes
human melanocortin-5 receptor (hMC5-R) (human), sequence (P33032 whole entry): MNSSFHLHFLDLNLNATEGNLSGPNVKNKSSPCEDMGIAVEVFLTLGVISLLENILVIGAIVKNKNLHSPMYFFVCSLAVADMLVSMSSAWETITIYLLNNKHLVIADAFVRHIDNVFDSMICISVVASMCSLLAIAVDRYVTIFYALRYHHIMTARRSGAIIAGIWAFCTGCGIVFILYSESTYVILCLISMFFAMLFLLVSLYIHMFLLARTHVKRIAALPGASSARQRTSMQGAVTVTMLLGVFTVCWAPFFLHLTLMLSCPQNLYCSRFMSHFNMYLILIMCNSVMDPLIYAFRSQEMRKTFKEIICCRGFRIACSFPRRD

melanocortin-1 receptor (MC1-R) of B-16 mouse melanoma cells (mouse), sequence (Q01727 whole entry): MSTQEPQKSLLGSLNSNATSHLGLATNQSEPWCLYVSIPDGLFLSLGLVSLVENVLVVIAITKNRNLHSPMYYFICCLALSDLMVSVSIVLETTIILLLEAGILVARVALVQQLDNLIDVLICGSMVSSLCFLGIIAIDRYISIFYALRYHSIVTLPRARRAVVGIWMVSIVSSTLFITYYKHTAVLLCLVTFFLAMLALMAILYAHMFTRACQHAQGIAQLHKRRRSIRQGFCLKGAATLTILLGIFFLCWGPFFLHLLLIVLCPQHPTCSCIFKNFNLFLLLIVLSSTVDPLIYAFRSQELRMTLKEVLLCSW
human melanocortin-4 receptor (hMC4-R) (human), sequence (P32245 whole entry): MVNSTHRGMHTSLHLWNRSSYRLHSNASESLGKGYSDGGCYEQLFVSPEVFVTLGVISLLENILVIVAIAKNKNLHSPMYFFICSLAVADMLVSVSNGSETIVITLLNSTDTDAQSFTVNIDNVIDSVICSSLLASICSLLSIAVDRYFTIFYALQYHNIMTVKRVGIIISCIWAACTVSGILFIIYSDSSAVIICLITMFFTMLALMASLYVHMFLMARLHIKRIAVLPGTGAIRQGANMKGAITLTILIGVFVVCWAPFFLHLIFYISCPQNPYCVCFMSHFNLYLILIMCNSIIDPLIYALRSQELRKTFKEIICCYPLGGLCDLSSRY
human melanocortin-3 receptor (hMC3-R) (human), sequence (P41968 whole entry): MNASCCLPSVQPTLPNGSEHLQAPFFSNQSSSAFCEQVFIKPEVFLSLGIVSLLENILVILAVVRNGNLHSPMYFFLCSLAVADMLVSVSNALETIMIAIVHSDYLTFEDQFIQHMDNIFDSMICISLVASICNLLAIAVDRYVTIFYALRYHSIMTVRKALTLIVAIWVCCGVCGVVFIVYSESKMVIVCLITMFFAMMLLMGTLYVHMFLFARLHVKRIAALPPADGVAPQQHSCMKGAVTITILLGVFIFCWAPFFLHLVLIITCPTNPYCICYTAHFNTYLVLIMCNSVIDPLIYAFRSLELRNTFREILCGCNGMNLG

% Inhibition at 1 µM [1]: 4% | % Inhibition at 1 µM [2]: 4%
B1: metallopeptide 4-7 (peptide)
peptide: YV[Nle]GHCFRWDRF-NH2
modifications: also: oxorhenium(V) N3S1 chelate: C6 SG + backbone N of G4, H5, C6, bridge at 6 via Re(V)=O, other end not in the chain

% Inhibition at 1 µM [3]: 5%
Binder: Ac-SYS[dC][Nle]EHFRWGKPV-NH2 (also: oxorhenium(V) N3S1 chelate at D-Cys4) [metallopeptide 2-11]

% Inhibition at 1 µM [1]: 1% | % Inhibition at 1 µM [2]: 4%
B2: metallopeptide 4-9 (peptide)
peptide: YV[Nle]CGHFRWDRF-NH2
modifications: also: oxorhenium(V) N3S1 chelate: C4 SG + backbone N of V2, X3, C4, bridge at 4 via Re(V)=O, other end not in the chain

% Inhibition at 1 µM [3]: 6%
Binder: Ac-SYS[Nle]EHFRWGKGCV-NH2 (also: oxorhenium(V) N3S1 chelate at Cys13) [metallopeptide 1-2]

% Inhibition at 1 µM [4]: 6%
Binder: Ac-SYS[Nle]EHFRWGCKPV-NH2 (also: oxorhenium(V) N3S1 chelate at Cys11) [metallopeptide 1-4]
